Where no end group is shown, it is not given here. [ ]: non-standard residue; d: D form. pY = N[C@@H](Cc1ccc(OP(=O)(O)O)cc1)C(=O)O

The chains are these.
T1: Full-length STAT1 protein (unphosphorylated) (human, UniProt P42224 1-750)
T1 construct: also called U-STAT1; pEXP-nHis-STAT1
T1 sequence (looked up): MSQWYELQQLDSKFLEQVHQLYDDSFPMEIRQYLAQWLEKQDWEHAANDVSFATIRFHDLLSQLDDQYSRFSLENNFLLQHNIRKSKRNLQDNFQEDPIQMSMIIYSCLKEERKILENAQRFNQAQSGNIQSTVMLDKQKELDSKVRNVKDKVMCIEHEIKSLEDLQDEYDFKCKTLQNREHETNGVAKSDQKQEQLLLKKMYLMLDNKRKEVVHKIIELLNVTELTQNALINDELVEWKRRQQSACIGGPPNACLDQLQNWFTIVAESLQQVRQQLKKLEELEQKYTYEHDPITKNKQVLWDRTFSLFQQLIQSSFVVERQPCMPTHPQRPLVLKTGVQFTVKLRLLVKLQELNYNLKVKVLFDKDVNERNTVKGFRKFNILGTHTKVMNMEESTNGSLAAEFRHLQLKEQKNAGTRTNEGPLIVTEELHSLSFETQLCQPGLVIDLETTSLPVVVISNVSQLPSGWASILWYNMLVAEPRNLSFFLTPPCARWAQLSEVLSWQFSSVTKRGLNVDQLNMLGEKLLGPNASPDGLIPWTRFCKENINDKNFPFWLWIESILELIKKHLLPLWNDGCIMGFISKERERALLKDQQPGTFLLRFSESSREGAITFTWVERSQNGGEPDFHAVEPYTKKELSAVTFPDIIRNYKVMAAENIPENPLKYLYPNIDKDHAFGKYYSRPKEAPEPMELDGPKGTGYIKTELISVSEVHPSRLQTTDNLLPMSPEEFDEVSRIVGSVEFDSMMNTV

T2: Full-length STAT1 protein (unphosphorylated, U-STAT1) (UniProt P42224 1-750)
T2 construct: also called STAT1 FL
T2 sequence (looked up): T1 sequence (looked up)

B1: GB1-018 (natural protein)
chain: MSSKGGSSGGMWSVFIHGHDGSNKGSKTYTSGGGGMWGGGSSSGVKSGVNGGVKSGTGKI
B2: pIFNGR1 5-mer peptide (Ac-pYDKPH-NH2) (peptide)
peptide: Ac-[pY]DKPH-NH2
SMILES: CC(=O)N[C@@H](Cc1ccc(OP(=O)(O)O)cc1)C(=O)N[C@@H](CC(=O)O)C(=O)N[C@@H](CCCCN)C(=O)N1CCC[C@H]1C(=O)N[C@@H](Cc1c[nH]cn1)C(N)=O
notes: also called pIFNGR 5-mer

In one experiment the target is T1, Full-length STAT1 protein …. The experiment can be described thus: ITC. The conditions noted are these: both partners purified.
In turn, MWSVFIHGHDGSNKGSKTYTS [018 21-mer peptide] yielded a Kd of 321 nM.
In turn, MWSVFIHGHDGSNKGSKTYTS (also: phospho, position not given here) [018 phospho 21-mer peptide] displayed a Kd of 174 nM.
Consider MWSVFIHGHDGSNKGSK (domain or fragment) [GB1-018^T3], for which the Kd is above 10000 nM.
For the molecule B1, the Kd was 291 nM and the “stoichiometry N” value came out at 1.02.
For MWSVFIHGHDGSNKGSKTYTS (domain or fragment) [GB1-018^T2], the Kd was found to be 235 nM.

Another experiment concerns the target T2, Full-length STAT1 protein …. The experiment can be described thus: ITC. Conditions: both partners purified.
Regarding MWSVFIHGHDGSNKGSKTYTS (domain or fragment) [GB1-018^T2 (minimal fragment of 018, aa 11-31, fused to GB1)], the “stoichiometry N” value was found to be 1.01.
Same read-out and setting: the result for MWSVFIHGHDGSNKGSK (domain or fragment) [GB1-018^T3 (018^T2 without the C-terminal 28-TYTS-31, fused to GB1)] reads 1; that for Ac-MWSVFIHGHDGSNKGSKT[pY]TS-NH2 [018 phospho 21-mer peptide (Ac-MWSVFIHGHDGSNKGSKT(pY)TS-NH2)], 1.12; that for B2, 0.708.
On the same count and under the same terms, with Ac-MWSVFIHGHDGSNKGSKTYTS-NH2 [018 21-mer peptide (Ac-MWSVFIHGHDGSNKGSKTYTS-NH2)] the figure was 1.09.

The target in a further experiment is T1, Full-length STAT1 protein …. Briefly: fluorescence polarisation. The conditions noted are these: both partners purified.
MWSVFIHGHDGSNKGSK (domain or fragment) [GB1-018^T3] showed an IC50 of 17800 nM.
Same read-out and setting: the result for B1 reads 1260 nM.
In the case of MWSVFIHGHDGSNKGSKTYTS (domain or fragment) [GB1-018^T2], the midpoint of inhibition, the IC50, lay at 930 nM.

For the origin of these results see publication PMC8912257 (Cell Host & Microbe, 2022).
